From publication PMC3205447

What was measured:
[1] = target: TRAF2 (UniProt P39429); assay: anti-TRAF2 IP, TAX1BP1 immunoblot; settings: reference: wild type; sites S593,S624
[2] = target: TRAF6 (UniProt P70196); assay: anti-TRAF6 IP, TAX1BP1 immunoblot; settings: reference: wild type; sites S593,S624
UniProt P70196, sequence (P70196 whole entry, looked up): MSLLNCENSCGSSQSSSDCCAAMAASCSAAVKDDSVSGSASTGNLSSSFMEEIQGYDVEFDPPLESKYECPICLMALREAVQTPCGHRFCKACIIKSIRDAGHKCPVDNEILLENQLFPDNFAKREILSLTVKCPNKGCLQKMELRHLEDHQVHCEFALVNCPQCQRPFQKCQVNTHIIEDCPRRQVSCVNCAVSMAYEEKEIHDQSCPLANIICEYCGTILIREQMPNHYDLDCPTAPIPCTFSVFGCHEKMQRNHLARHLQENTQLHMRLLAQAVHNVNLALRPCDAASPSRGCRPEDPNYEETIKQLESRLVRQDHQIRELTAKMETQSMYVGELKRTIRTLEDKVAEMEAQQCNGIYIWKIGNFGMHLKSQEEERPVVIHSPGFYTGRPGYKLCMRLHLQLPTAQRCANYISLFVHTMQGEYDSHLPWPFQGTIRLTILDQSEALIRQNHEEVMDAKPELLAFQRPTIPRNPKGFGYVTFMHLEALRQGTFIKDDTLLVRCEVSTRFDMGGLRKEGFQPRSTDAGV

UniProt P39429, sequence (P39429 whole entry, looked up): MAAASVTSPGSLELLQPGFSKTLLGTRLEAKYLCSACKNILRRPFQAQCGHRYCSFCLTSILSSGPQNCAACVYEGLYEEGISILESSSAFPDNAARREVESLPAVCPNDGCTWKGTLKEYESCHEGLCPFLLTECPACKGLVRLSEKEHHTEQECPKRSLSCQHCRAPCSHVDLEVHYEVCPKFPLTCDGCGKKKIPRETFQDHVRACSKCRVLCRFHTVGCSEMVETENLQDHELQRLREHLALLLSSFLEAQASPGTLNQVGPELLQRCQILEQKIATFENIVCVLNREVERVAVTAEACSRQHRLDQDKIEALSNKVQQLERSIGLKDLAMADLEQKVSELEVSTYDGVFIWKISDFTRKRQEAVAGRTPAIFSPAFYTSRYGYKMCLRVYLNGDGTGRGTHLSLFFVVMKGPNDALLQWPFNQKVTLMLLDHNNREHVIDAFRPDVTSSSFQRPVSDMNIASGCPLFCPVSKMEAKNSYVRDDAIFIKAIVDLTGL

Substance: TAX1BP1 (Flag-tagged, amino acids 1–747) 1-747 (from UniProt Q86VP1-2) S593A, S624A
- binding against the reference [1]: lost
- binding against the reference [2]: lost
